Reference: patent publication US20250270566A1, “DUAL-SPECIFICITY RNA ATPAMERS FOR REGULATING O-GLCNACYLATION” (University of Georgia Research Foundation, Inc., published 2025)

Experiments:
KAT2A (GCN5) = molecular target: T1, KAT2A (GCN5) (UniProt Q92830 2-837); assay: PLA with antibodies to β-catenin and KAT2A, confocal images of HEK293T cells, -Wnt, T1 • bc339 or 3JB8F+12
T1 construct: Endogenous protein in HEK293T cells; also called KAT2A/GCN5L2
Protocol: FIGS. 12A to 12P show O-GlcNAc regulates β-catenin's interactions with KAT2A. FIGS. 12A to 12H contain confocal images of Proximity Ligation Assay (PLA) on HEK293T cells. Cells were transfected with plasmids encoding the control aptamers (T1·bc339) or a DS aptamer (3JB8F+12 or 3JB8R+12) and stimulated with regular (−Wnt) or Wnt3A-conditioned (+Wnt) medium. PLA was performed with antibodies targeting […] and KAT2A or H3K9ac. In FIGS. 12C and 12D, cells were treated with 50 μM Ac5S for 20 hr. FIGS. 12I to 12P show quantification of FIGS. 12A to 12H. PLA puncta in nucleus were counted and normalized to the number of nuclei in each view. Student's t-test was performed. Data are represented as mean±SD. ns, p≥0.05; ***, p<0.001; ****, p<0.0001. N=10. T1·bc339—Individual T1 and bc339 aptamers (control). 3JB8F+12/R+12—DS aptamers (T1-linker-bc339) with folded linkers.

EP300 = molecular target: T2, EP300 (UniProt Q09472 2-2414); assay: PLA with antibodies to β-catenin and EP300, confocal images of HEK293T cells, -Wnt, T1 • bc339 or 3JB8F+12
T2 construct: Endogenous protein in HEK293T cells
Protocol: FIGS. 13A to 13P show O-GlcNAc regulates β-catenin's interactions with other epigenetic modifiers and β-TrCP. FIGS. 13A to 13F contain confocal images of PLA on HEK293T cells. Cells were transfected with plasmids encoding the control aptamers (T1·bc339) or a DS aptamer (3JB8F+12), and stimulated with regular (−Wnt) or Wnt3A-conditioned (+Wnt) medium. PLA was performed with antibodies targeting β-catenin and EP300, KAT5, or β-TrCP. FIGS. 13G and 13H contain confocal images of the negative control experiments of PLA. Cells were treated with regular (−Wnt) or Wnt3A-conditioned (+Wnt) medium. PLA was performed with the antibody targeting β-catenin and normal rabbit IgG. FIGS. 13I to 13P show quantification of FIGS. 13A to 13H. Nuclear or total PLA puncta were counted and normalized to the number of nuclei in each view. N=10 (I to N) or N=5 (O to P). Student's t-test was performed. Data are represented as mean±SD. **, p<0.01; ***, p<0.001. T1·bc339—Individual T1 and bc339 aptamers (control). 3JB8F+12—A DS aptamer (T1-linker-bc339) with a folded linker.

β-catenin = β-catenin (UniProt P35222 P35222:1-781); assay: SPR; intracellular buffer (20 mM HEPES, 110 mM KCl, 10 mM NaCl, 0.4 mM MgCl2, 5 mM KH2PO4, pH 7.2), 25 C; details: tags: His tag (Ni-NTA purified, pET28a-β-catenin, E. coli)
Protocol: Total PLA puncta was counted and normalized to the number of nuclei in each view. Student's t-test was performed. N=8. […] Nucleus and cytoplasm of cells stably expressing 3JB8F+12 was isolated, and RNA in each fraction was quantified by RT-qPCR. RNA abundances were normalized to that of 3JB8F+12 in whole cell lysate (purple bar in upper panel). NEAT1 is a nuclear RNA control, and GAPDH is a cytoplasmic RNA control. Cyt.—Cytoplasm. Nuc.—Nucleus. W.C.—Whole Cell. N=4. T1·bc339—Individual T1 and bc339 aptamers (control). NL8F50/70/100—DS aptamers (T1-linker-bc339) with flexible linkers of 50/70/100 nt. 3JB8F—DS aptamers (T1-linker-bc339) with folded linkers. +4/+12, serial additions (bp) into the folded linker. Quantitated data are normalized to the control group (T1·bc339). Aptamers were expressed from plasmids, and One-way ANOVA test was performed unless indicated. Data are represented as mean±SD. ns, p≥0.05; *, p<0.05; **, p<0.01; ***, p<0.001; ****, p<0.0001.
(§1) For SPR, Multi Cycle Kinetics was performed according to (Chang, A. L., et al. Methods Enzymol 2014 549:451-466) on a Biacore T100 (GE Healthcare/Cytiva) instrument at 25° C. […] Data was analyzed using the Biacore Evaluation Software (GE Healthcare/Cytiva), where the overlaid sensorgrams were fitted into a 1:1 binding model.

[1] = molecular target: T3, ncOGT full-length (OGT-FL, nucleocytoplasmic O-GlcNAc transferase) (UniProt O15294 O15294:1-1046); assay: SPR; ABB (20 mM Tris-HCl, 150 mM NaCl, 5 mM MgCl2, 0.05% Tween-20, pH 7.5), 25 C, 1:1 model; details: tags: His tag (Ni-NTA purified, pET24a-ncOGT-FL, E. coli)
T3 sequence: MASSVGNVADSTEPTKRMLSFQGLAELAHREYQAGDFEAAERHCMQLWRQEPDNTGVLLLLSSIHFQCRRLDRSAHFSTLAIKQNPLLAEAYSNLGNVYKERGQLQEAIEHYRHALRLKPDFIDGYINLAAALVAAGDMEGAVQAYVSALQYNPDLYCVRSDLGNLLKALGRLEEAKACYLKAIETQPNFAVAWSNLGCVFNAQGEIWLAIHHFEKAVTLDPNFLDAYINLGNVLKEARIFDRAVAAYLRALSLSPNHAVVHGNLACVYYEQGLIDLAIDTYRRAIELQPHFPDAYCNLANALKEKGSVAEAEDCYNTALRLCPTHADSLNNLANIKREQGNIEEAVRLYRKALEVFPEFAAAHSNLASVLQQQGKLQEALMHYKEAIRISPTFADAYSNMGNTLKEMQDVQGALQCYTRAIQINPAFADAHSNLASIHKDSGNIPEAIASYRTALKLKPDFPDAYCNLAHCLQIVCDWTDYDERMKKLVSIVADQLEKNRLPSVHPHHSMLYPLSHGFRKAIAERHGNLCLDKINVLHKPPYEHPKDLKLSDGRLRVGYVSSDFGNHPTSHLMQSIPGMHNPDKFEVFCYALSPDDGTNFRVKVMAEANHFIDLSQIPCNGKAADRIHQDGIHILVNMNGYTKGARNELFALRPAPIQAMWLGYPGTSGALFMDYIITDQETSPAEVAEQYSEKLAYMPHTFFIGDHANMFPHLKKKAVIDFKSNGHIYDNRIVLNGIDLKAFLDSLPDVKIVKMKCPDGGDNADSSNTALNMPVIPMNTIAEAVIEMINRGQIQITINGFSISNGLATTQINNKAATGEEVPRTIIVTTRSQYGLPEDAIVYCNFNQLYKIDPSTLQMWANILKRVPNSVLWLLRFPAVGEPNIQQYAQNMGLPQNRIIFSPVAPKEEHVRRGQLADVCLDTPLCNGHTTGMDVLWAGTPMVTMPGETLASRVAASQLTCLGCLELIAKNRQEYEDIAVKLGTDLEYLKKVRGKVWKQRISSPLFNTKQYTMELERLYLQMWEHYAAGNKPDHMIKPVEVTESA
Protocol: T1 was included in the indicated reactions (orange) from 2 μM to 7.8 nM in 2× serial dilution. Data were normalized to the positive control reaction (red). One-way ANOVA test was performed. […] OGT was immunoprecipitated from lysate of T1-expressing cells, using buffers with Mg²⁺ (left) or without Mg²⁺ (right). Then the OGT-bound T1 was quantified by RT-qPCR. Data were normalized to the IgG groups. One-way ANOVA test was performed. RT—Reverse Transcriptase. N=3. […] N=3. […] Cells stably expressing T1 were treated with ActD for the indicated periods. Abundance of T1 was quantified by RT-qPCR (left) and normalized to that of 18S rRNA (right) and initial timepoint (T=0). Data were fitted to a one-phase decay model (curve). N=3. Data are represented as mean±SD. ns, p≥0.05; ****, p<0.0001.
as §1, with “C. In assay preparation, an amine-modified T24 DNA linker (NH2-T24) was immobilized to approximately 100 RU in both reference and test flow cells on a sensorchip PEG (GE Healthcare/Cytiva 29239810), using the Amine Coupling Kit (GE Healthcare/Cytiva BR100050).” for “C.”

[2] = molecular target: T3, ncOGT full-length (OGT-FL, …); assay: FP filter; radiolabeled dot blot (nitrocellulose filter), ABB with 5 mM MgCl2, 37 C, yeast tRNA and BSA competitors; details: tags: His tag (Ni-NTA purified, pET24a-ncOGT-FL, E. coli); label: 5'-32P (dot blot)
Protocol: Radiolabeled RNA was diluted in ABB, denatured at 65° C. for 5 min and re-folded at room temperature for 5 min. Then 100 nM of RNA was incubated with multiple concentrations (see Figure legends) of purified ncOGT at 37° C. for 30 min. The volume of each assay was 50 μL. 1 μM yeast tRNA (Invitrogen AM7119) and 50 μg/mL Bovine Serum Albumin (BSA, NEB B9001S) were included as non-specific competitors. After incubation, the reactions were filtered sequentially through a nitrocellulose membrane (Amersham 10600042) and a Nylon membrane (Invitrogen AM10102), on a Bio-Dot Microfiltration Apparatus (Bio-Rad 170-6545). Membranes were washed with 100 μL ABB to remove unbound RNA. Washed membranes were air-dried and exposed to a film (Amersham 28906836) for 2 hr. The film was developed and scanned, and the image was analyzed with Fiji (Schindelin, J., et al. Nat Methods 2012 9:676-682). Quantified data was fitted into a Michaelis-Menten model using GraphPad Prism.

T1 sequence (Q92830 2-837 limits assumed): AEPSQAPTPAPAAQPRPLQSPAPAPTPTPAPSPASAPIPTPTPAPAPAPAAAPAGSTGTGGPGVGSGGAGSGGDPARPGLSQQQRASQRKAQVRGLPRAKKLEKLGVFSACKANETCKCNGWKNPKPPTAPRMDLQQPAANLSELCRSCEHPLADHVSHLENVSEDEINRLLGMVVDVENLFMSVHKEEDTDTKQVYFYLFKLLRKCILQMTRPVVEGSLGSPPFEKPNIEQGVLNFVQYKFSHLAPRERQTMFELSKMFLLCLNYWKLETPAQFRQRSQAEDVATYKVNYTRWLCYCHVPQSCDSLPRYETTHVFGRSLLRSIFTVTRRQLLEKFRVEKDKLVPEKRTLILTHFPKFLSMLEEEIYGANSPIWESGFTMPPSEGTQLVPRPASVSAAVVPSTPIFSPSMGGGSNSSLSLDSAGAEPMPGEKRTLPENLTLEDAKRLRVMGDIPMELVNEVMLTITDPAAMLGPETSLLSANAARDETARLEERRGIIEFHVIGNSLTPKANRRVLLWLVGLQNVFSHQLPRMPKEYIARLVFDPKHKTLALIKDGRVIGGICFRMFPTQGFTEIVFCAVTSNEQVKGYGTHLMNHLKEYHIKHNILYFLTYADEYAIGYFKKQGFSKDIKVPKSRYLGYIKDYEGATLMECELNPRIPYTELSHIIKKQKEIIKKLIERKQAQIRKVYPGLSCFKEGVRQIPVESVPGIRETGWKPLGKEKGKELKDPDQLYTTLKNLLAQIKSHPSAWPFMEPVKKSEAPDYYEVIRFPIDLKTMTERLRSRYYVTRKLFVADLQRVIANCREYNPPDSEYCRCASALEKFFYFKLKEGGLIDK
T2 sequence (Q09472 2-2414 limits assumed): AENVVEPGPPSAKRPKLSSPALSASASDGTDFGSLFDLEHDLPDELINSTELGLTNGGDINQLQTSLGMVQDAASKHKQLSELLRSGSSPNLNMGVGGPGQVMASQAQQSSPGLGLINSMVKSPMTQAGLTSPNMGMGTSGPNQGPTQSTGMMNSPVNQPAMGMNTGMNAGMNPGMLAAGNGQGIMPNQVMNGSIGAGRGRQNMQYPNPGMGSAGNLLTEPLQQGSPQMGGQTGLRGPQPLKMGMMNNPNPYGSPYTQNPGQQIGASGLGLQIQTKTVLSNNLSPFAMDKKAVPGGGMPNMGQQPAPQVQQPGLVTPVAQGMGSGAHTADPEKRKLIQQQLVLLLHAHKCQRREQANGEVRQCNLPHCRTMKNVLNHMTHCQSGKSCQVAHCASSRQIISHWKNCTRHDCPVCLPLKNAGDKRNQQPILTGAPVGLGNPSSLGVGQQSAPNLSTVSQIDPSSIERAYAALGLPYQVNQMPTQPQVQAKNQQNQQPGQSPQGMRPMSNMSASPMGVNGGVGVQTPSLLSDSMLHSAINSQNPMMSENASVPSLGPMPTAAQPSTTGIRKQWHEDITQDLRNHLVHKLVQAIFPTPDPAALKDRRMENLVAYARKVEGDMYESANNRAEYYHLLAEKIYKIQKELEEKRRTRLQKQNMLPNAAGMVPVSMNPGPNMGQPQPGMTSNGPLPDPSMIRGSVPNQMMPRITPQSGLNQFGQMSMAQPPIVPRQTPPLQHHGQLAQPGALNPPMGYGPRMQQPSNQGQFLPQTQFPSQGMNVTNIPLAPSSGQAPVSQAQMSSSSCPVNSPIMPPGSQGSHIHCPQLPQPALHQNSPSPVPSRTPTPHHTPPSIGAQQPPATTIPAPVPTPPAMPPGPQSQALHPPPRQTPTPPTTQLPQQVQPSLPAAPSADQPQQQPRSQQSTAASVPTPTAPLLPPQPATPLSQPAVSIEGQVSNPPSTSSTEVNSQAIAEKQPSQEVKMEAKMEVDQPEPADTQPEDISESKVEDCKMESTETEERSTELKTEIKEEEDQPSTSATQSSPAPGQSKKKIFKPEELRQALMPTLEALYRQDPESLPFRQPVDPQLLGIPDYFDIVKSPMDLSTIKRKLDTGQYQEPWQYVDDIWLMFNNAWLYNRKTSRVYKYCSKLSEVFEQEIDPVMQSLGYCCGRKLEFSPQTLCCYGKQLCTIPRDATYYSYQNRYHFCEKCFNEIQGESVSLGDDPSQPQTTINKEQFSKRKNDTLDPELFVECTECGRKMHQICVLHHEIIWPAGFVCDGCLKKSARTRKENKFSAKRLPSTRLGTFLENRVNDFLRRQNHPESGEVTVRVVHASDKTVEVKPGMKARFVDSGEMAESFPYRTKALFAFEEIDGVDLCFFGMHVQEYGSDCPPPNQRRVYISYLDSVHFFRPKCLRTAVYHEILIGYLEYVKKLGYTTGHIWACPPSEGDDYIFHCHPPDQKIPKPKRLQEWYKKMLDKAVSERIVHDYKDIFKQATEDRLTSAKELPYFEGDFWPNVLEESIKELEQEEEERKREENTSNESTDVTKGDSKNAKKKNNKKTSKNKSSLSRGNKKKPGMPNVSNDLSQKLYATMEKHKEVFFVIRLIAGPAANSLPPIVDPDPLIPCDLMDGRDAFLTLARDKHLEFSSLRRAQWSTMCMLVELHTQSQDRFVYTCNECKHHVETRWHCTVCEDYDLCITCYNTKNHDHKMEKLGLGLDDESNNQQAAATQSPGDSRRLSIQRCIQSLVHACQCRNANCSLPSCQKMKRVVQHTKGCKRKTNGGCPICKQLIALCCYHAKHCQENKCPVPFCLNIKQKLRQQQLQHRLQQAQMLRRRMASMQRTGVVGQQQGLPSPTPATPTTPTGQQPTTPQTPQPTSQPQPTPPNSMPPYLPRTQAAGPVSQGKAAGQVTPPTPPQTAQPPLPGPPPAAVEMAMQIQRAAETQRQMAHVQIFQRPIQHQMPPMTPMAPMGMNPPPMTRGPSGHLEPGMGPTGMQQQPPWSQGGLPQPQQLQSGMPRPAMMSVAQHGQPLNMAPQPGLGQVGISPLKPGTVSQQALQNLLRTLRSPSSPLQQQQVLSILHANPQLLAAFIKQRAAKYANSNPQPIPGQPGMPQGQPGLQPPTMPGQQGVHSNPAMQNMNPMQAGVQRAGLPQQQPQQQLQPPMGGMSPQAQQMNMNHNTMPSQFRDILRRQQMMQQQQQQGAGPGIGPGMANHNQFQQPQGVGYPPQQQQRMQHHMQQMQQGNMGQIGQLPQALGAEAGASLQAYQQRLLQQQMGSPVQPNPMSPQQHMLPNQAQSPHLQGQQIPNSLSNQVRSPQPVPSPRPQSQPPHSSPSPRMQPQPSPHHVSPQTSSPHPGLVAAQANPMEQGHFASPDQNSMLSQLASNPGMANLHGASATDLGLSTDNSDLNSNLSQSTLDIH

B1: β-catenin (endogenous, in HEK293T cells) (other, UniProt P35222 2-781, looked up)
chain: ATQADLMELDMAMEPDRKAAVSHWQQQSYLDSGIHSGATTTAPSLSGKGNPEEEDVDTSQVLYEWEQGFSQSFTQEQVADIDGQYAMTRAQRVRAAMFPETLDEGMQIPSTQFDAAHPTNVQRLAEPSQMLKHAVVNLINYQDDAELATRAIPELTKLLNDEDQVVVNKAAVMVHQLSKKEASRHAIMRSPQMVSAIVRTMQNTNDVETARCTAGTLHNLSHHREGLLAIFKSGGIPALVKMLGSPVDSVLFYAITTLHNLLLHQEGAKMAVRLAGGLQKMVALLNKTNVKFLAITTDCLQILAYGNQESKLIILASGGPQALVNIMRTYTYEKLLWTTSRVLKVLSVCSSNKPAIVEAGGMQALGLHLTDPSQRLVQNCLWTLRNLSDAATKQEGMEGLLGTLVQLLGSDDINVVTCAAGILSNLTCNNYKNKMMVCQVGGIEALVRTVLRAGDREDITEPAICALRHLTSRHQEAEMAQNAVRLHYGLPVVVKLLHPPSHWPLIKATVGLIRNLALCPANHAPLREQGAIPRLVQLLVRAHQDTQRRTSMGGTQQQFVEGVRMEEIVEGCTGALHILARDVHNRIVIRGLNTIPLFVQLLYSPIENIQRVAAGVLCELAQDKEAAEAIEAEGATAPLTELLHSRNEGVATYAAAVLFRMSEDKPQDYKKRLSVELTSSLFRTEPMAWNETADLGLDIGAQGEPLGYRQDDPSYRSFHSGGYGQDALGMDPMMEHEMGGHHPGADYPVDGLPDLGHAQDLMDGLPPGDSNQLAWFDTDL
modifications: O-GlcNAc at varying levels (raised by the DS aptamer 3JB8F+12); sites not fully mapped
notes: Endogenous protein detected in fixed cells (PLA) or cell lysate (Co-IP) with an anti-β-catenin antibody; HEK293T is a human cell line; also called endogenous β-catenin
KAT2A (GCN5)
  binding result: binds
EP300
  binding result: binds

B2: bc339 with 3' A28 tail (ssRNA)
RNA: AGCUUCUGGGCGGCGAUGAGAUGACGUGUGCGGUGGUCGAGAGGUACCUUGGGUGAGGGAAGGGAAGGGAGGUUGACCACUGCGUGACUGCCCAGAAGCU
β-catenin
  Kd: 16 nM

B3: T1 with 3' A28 tail (ssRNA)
RNA: GGGAGAAUCACUUACGGAUCCUCGUUAAGUGGCUCUCAGUCGCCCGUAACUCCGAUGCCGAUGCAGCGGCGACAACUGCACCCAAGGCUCGGAAGCUU
[1]
  Kd: 60.5 nM

B4: T1 (ssRNA)
RNA: GGGAGAAUCACUUACGGAUCCUCGUUAAGUGGCUCUCAGUCGCCCGUAACUCCGAUGCCGAUGCAGCGGCGACAACUGCACCCAAGGCUCGGAAGCUU
[2]
  Kd: ~60 nM
